Results as given in PMC11054746, “GRPR-Antagonists Carrying DOTAGA-Chelator via Positively Charged Linkers: Perspectives for Prostate Cancer Theranostics” (Pharmaceutics, 2024).
Starred links: 1 amine or outer side, 2 acyl side, 3 side chain; linkers in the order of their positions; H or OH if unused. Non-standard residues stand in square brackets, D forms with d. Residues, ends and D or L forms follow the SMILES beside them. *: point of attachment. DOTAGA = O=C(O)CN1CCN(CC(=O)O)CCN(C(CCC(=O)*)C(=O)O)CCN(CC(=O)O)CC1; Sta = CC(C)C[C@H](N)[C@@H](O)CC(=O)O; X1 = O=C(CN1CCC(N[*:1])CC1)[*:2]; Sar = CNCC(=O)O

Legend:
[1] = Radiochemical stability: indium release in PBS or with EDTA excess, by iTLC; assay type: physicochemical; conditions: room temperature, 0.2 M citric acid, mean ± sd, n = 3
Method: The radiochemical yield was analyzed with instant thin layer chromatography (iTLC) strips (Agilent Technologies, Santa Clara, CA, USA), using 0.2 M citric acid buffer as a mobile phase (Rf = 0 for the radiolabeled peptide and Rf = 1 for free indium). The iTLC results were analyzed using Cyclone® Plus Phosphorimager (PerkinElmer, Hägersten, Sweden). The radiochemical stability was determined by incubating the radiolabeled compounds with phosphate-buffered saline (PBS) or a 1000-fold molar excess of ethylenediaminetetraacetic acid (EDTA) for 1 h at room temperature. The percentage of indium release was assessed by iTLC using 0.2 M citric acid as mobile phase. Stability tests were performed in triplicate for each compound.

PC-3 cells [2] = experiment: In vitro binding specificity assay (uptake with and without GRPR blocking by NOTA-PEG2-RM26); assay type: cell-based, human; conditions: 1 nM radiotracer, 1 h, unblocked
Method: The in vitro binding assay was performed on PC-3 cells seeded in 6-well plates (1.15 × 10^6 cells/well). Media containing a GRPR-blocking agent (NOTA-PEG2-RM26, 1 μM) were added to half of the wells. The plates were incubated at room temperature for 10 min and the medium containing the radiotracer under investigation was added to all wells in a final concentration of 1 nM. The plates were incubated for 1 h and then treated with 0.25% trypsin-EDTA to detach cells. The cells were collected and their activity was measured using the gamma counter.

human GRPR = molecular target: T1, human GRPR (Homo sapiens, UniProt P30550); experiment: Affinity measurements in real time (LigandTracer) on PC-3 cells; assay type: binding; conditions: room temperature, 1:2 fitting interaction model
T1 construct: host or cells: PC-3 human prostate adenocarcinoma cells
Method: The association curves were recorded at 1 nM and 3 nM of the radiolabeled peptides for 300 min. After reaching the plateau, the medium containing the radioligand was replaced with fresh medium and the dissociation curve was measured for about 16 h. The obtained sensorgrams were analyzed using TracerDrawer (Ridgeview Instruments AB, Uppsala, Sweden) and the dissociation constants (KD) were calculated.

PC-3 cells [3] = experiment: Cellular internalization; assay type: cell-based, human; conditions: 1 nM, acid wash, mean of 3 dishes ± sd, normalized to maximum cell association at 24 h
Method: For the cellular internalization assay, PC-3 cells (1 × 10^6 cells/dish) were used. The cells were incubated with 1 mL (1 nM) of solution containing the radiolabeled peptide under evaluation. At the 4 h and 24 h time points, the cells were treated with an acid wash (0.2 M glycine buffer with 0.15 M NaCl and 4 M urea, pH 2) for 5 min on ice to remove the membrane-bound peptide. After collection of acid fractions, the cells were treated with 1 M NaOH for at least 30 min and the cell debris were scraped and collected. The activity content in samples was measured using the gamma counter.

in vivo = experiment: in vivo; design: species or system BALB/C nu/nu mice; conditions: BALB/C nu/nu, mouse, iv, total radioactivity; for tissue to tissue ratio at 4 h / tissue to tissue ratio at 24 h: Tumor-to-organ ratio
Method: (§1) All in vivo studies were performed following European guidelines on laboratory animal protection. The in vivo stability experiments were carried out in healthy male Swiss albino mice; the study protocol was approved by the Department of Agriculture and Veterinary Service of the Prefecture of Athens (protocol number #440448, 01-06-2021). The biodistribution, in vivo targeting specificity assay, and SPECT/CT imaging experiments were carried out on BALB/C nu/nu mice. The Ethics Committee for Animal Research in Uppsala (Sweden) approved the latter in vivo animal studies (permit number 00473/21). The BALB/C nu/nu mice were implanted with GRPR-positive prostate cancer xenografts by subcutaneous injection on the right hind leg of PC-3 cells suspended in PBS (7 × 10^6 cells/mouse) four weeks before the biodistribution studies.
(§2) The mice were iv injected with 40 pmol peptide (30 kBq in a total volume of 100 μL 1% bovine serum albumin (BSA) in PBS). […] At the indicated time points, mice were euthanized under anesthesia. The organs of interest were collected, weighed, and the sample radioactivity content was measured on the gamma counter. The percentage of injected activity per gram (%IA/g) of collected tumors, organs and tissues, the %IA for the remaining gastrointestinal tract and carcass, as well as the tumor-to-organ ratios (T/O) were calculated.

PC-3 xenografts = experiment: in vivo; design: species or system BALB/C nu/nu mice; conditions: mouse
Method: as §1, §2

[4] = 40 pmol, GI (gastrointestinal tract, GIT) uptake

T1 sequence (P30550 whole entry): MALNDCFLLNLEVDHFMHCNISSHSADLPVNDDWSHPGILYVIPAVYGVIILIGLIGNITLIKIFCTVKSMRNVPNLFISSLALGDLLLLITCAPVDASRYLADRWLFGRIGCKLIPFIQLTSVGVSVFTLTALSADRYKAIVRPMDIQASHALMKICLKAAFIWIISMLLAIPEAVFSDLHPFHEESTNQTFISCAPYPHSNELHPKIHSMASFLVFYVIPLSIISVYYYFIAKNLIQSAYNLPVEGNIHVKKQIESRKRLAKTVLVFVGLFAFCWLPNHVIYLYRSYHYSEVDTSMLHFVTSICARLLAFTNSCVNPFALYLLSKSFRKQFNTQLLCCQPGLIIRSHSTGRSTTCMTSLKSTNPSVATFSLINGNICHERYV

## CC(C)C[C@H](NC(=O)C[C@H](O)[C@H](CC(C)C)NC(=O)[C@H](Cc1c[nH]cn1)NC(=O)CN(C)C(=O)[C@@H](NC(=O)[C@H](C)NC(=O)[C@H](Cc1c[nH]c2ccccc12)NC(=O)[C@H](CCC(N)=O)NC(=O)[C@@H](Cc1ccccc1)NC(=O)CN1CCC(NC(=O)[C@H](CCCNC(=N)N)NC(=O)[C@H](CCCNC(=N)N)NC(=O)CCC(C(=O)O)N2CCN(CC(=O)O)CCN(CC(=O)O)CCN(CC(=O)O)CC2)CC1)C(C)C)C(N)=O (stereo partly drawn) [[^111In]In-AU-RM26-M4, metal not drawn] ({DOTAGA}-RR[X1][dF]QWAV[Sar]H[Sta]L-NH2)
[1]; 1000-fold molar excess of EDTA
  released [111In]In3+, ×1000 EDTA (1 h): 3.2 ± 0.1% (3)
[1]; incubation in PBS, 1 h
  released [111In]In3+, PBS: 1.9 ± 0.1% (3)
PC-3 cells [2]
  cell uptake, fold higher than the other analogs of the series: 2 fold
Human GRPR; association at 1 and 3 nM
  ka1: 344000 M⁻¹ s⁻¹
  ka2: 346000 M⁻¹ s⁻¹
Human GRPR; dissociation about 16 h
  kd1: 2e-06 s⁻¹
  kd2: 2.08e-06 s⁻¹
PC-3 cells [3]
  internalized fraction at 24 h: 33 ± 7%
In vivo; 40 pmol, Blood uptake
  tissue uptake at 4 h: 0.122 ± 0.0013 %ID/g
  tissue uptake at 24 h: 0.02 ± 0.01 %ID/g
In vivo; 40 pmol, Bone uptake
  tissue uptake at 4 h: 0.13 ± 0.04 %ID/g
  tissue uptake at 24 h: 0.09 ± 0.02 %ID/g
In vivo; 40 pmol, Carcass (whole body) uptake
  tissue uptake dose at 4 h: 3 ± 1.5 %ID
In vivo; 40 pmol, Carcass uptake
  tissue uptake dose at 24 h: 0.8 ± 0.2 %ID
In vivo; [4]
  tissue uptake dose at 4 h: 1.4 ± 0.3 %ID
  tissue uptake dose at 24 h: 0.15 ± 0.03 %ID
In vivo; 40 pmol, Kidneys uptake
  tissue uptake at 4 h: 7 ± 1 %ID/g
  tissue uptake at 24 h: 2.7 ± 0.1 %ID/g
In vivo; 40 pmol, Liver uptake
  tissue uptake at 4 h: 0.6 ± 0.11 %ID/g
  tissue uptake at 24 h: 0.31 ± 0.07 %ID/g
In vivo; 40 pmol, Lungs uptake
  tissue uptake at 4 h: 0.2 ± 0.08 %ID/g
  tissue uptake at 24 h: 0.06 ± 0.02 %ID/g
In vivo; 40 pmol, Muscle uptake
  tissue uptake at 4 h: 0.06 ± 0.02 %ID/g
  tissue uptake at 24 h: 0.02 ± 0.01 %ID/g
In vivo; 40 pmol, Pancreas uptake
  tissue uptake at 4 h: 3.4 ± 0.6 %ID/g
  tissue uptake at 24 h: 0.36 ± 0.08 %ID/g
In vivo; 40 pmol, Small Int uptake
  tissue uptake at 4 h: 1.1 ± 0.3 %ID/g
  tissue uptake at 24 h: 0.11 ± 0.03 %ID/g
In vivo; 40 pmol, Spleen uptake
  tissue uptake at 4 h: 0.23 ± 0.07 %ID/g
  tissue uptake at 24 h: 0.14 ± 0.04 %ID/g
In vivo; 40 pmol, Tumor uptake
  tissue uptake at 4 h: 15 ± 5 %ID/g
  tissue uptake at 24 h: 7 ± 3 %ID/g
In vivo; 40 pmol, Blood
  tissue to tissue ratio at 4 h: 123 ± 43
  tissue to tissue ratio at 24 h: 369 ± 228
In vivo; 40 pmol, Bone
  tissue to tissue ratio at 4 h: 119 ± 40
  tissue to tissue ratio at 24 h: 79 ± 25
In vivo; 40 pmol, Kidneys
  tissue to tissue ratio at 4 h: 2.3 ± 0.9
  tissue to tissue ratio at 24 h: 2.6 ± 0.9
In vivo; 40 pmol, Liver
  tissue to tissue ratio at 4 h: 25 ± 11
  tissue to tissue ratio at 24 h: 23 ± 9
In vivo; 40 pmol, Lungs
  tissue to tissue ratio at 4 h: 90 ± 59
  tissue to tissue ratio at 24 h: 120 ± 61
In vivo; 40 pmol, Muscle
  tissue to tissue ratio at 4 h: 307 ± 168
  tissue to tissue ratio at 24 h: 347 ± 176
In vivo; 40 pmol, Pancreas
  tissue to tissue ratio at 4 h: 4 ± 1
  tissue to tissue ratio at 24 h: 20 ± 5
In vivo; 40 pmol, Small Int
  tissue to tissue ratio at 4 h: 15 ± 7
  tissue to tissue ratio at 24 h: 67 ± 35
In vivo; 40 pmol, Spleen
  tissue to tissue ratio at 4 h: 71 ± 37
  tissue to tissue ratio at 24 h: 54 ± 30
In vivo; Carcass uptake, Block
  tissue uptake dose at 4 h: 1.6 ± 0.3 %ID
In vivo; GI (gastrointestinal tract, GIT) uptake, Block
  tissue uptake dose at 4 h: 0.5 ± 0.2 %ID
PC-3 xenografts; BALB/C nu/nu, iv, 40 pmol, 4 h
  Blood uptake: 0.125 ± 0.0004 %IA/g
PC-3 xenografts
  kidney uptake at 24 h pi retained as % of the 4 h renal value: < 38%
  pancreas uptake at 24 h pi as % of the initial 4 h uptake: less than 10%
